The values below are quoted from earlier work in article PMC6600238.

The target in the data set is vitronectin (Homo sapiens) (UniProt P04004).
UniProt P04004, sequence (P04004 399-478): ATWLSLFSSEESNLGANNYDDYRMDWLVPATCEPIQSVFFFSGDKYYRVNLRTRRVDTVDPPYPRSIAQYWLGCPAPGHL

As to uPAR (from UniProt Q03405), the Kd is 4 µM.
